In one experiment the target is human TNFα (human) (UniProt P01375). The experiment in a line: cell-based or functional assay.
Experiment [1] has as its target IL-10 receptor of HEK-BLUE IL-10 cells (the cells express all the components of the IL-10 signaling pathway). As to the kind of experiment: cell-based or functional assay.

Chain of human TNFα (human) (P01375 77-233 limits assumed): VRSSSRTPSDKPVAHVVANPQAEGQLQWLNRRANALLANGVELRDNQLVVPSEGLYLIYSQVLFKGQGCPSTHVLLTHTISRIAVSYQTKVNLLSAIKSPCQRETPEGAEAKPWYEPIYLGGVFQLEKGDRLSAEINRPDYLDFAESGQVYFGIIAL

The substance Etanercept (PRO078) (Fc fusion) had an IC50 (nM, replicate 2), inhibition of TNFα signaling in HEK-BLUE TNFα cells with human TNFα (human) of 0.07 nM.

Substance “recombinant human IL-10 (BioLegend #573204) (from UniProt P22301 19-178) (ligand)” had an EC50 (pM), HEK-BLUE IL-10 signaling assay (SEAP) in experiment [1] of 21 pM.

Source of the values: patent US20230203158A1.
